From patent publication US20250206837A1 (ELIXIRON IMMUNOTHERAPEUTICS HONG KONG, published 2025) come the findings set out here.

Assay [1] deals with T1, Recombinant His-tagged human CD36.ECD protein (Sino Biological) (human, UniProt P16671 30-439).
T1 construct: Bought protein; also called hCD36.ECD; hCD36; not shown: His tag
Briefly: ELISA, coated human CD36.ECD (FIG. 1C). How it is done: (§1) ELISA materials and methods: Recombinant His-tagged human CD36.ECD protein or His-tagged mouse CD36.ECD protein (both from Sino Biological) was immobilized on 96 well microtiter plate at a concentration of 1 μg/mL in Coating Solution (SeraCare) overnight at 4° C. The wells were washed with wash solution (0.05% Tween20 in PBS) and blocked with 1% BSA in PBS. Serial dilutions of anti-CD36 antibodies were added to wells. After incubation at 37° C. for 1 h, the wells were washed with wash solution. Peroxidase-conjugated Goat anti-human kappa Light chain antibody (Sigma) was applied to each well at 37° C. for 1 h incubation. After washing, the wells were developed with TMB substrate for 5-10 min at room temperature and then stopped with 1 N HCl. Thereafter absorbance was measured at 450 nm and 650 nm. EC50 values were calculated through GraphPad Prism7.
(§2) ELISA data plots showing binding of anti-CD36 antibodies to recombinant human CD36.ECD or mouse CD36.ECD coated on ELISA plates are depicted in FIG. 1C and 1D, respectively.

The target in assay [2] is T2, Recombinant His-tagged mouse CD36.ECD protein (Sino Biological) (mouse, UniProt Q08857 30-439).
T2 construct: Bought protein; also called mCD36.ECD; mCD36; not shown: His tag
T2 sequence (Q08857 30-439 limits assumed): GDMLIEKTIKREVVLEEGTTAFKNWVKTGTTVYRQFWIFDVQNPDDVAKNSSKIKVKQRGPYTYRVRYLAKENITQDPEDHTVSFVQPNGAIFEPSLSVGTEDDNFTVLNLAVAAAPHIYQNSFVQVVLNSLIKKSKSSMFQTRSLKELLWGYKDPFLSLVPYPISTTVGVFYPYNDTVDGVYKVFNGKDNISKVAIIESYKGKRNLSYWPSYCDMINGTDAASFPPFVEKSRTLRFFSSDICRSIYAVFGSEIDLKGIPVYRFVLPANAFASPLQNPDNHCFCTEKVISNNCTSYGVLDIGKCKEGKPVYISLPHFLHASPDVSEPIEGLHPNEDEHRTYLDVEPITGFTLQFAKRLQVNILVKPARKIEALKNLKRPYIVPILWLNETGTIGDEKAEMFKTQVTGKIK
Briefly: ELISA, coated mouse CD36.ECD (FIG. 1D). How it is done: as §1, §2

For assay [3], the target named is T1, Recombinant His-tagged human CD36.ECD …. Briefly: BLI (Octet), antibody on AHC sensor, His-tagged hCD36.ECD in solution, 1:1 fit. How it is done: BLI assay materials and method: Kinetic rate constants, ka and kd, for binding of the anti-CD36 antibodies to human CD36 were measured by Bio-Layer Interferometry (BLI) (ForteBio Octet RED96). […] Rate constants were calculated by curve fitting analyses (1:1 Langmuir model) of binding response with a 2.5-minute association and 5-minute dissociation interaction time.

For assay [4] the target is unchanged. As to the kind of experiment: hCD36 ELISA, plate coated with human CD36.ECD, antibody titrated, OD (450-650) nm. How it is done:
as §1
(§3) The competitor anti-CD36 antibody ONA, which is derived from clone “ONA-0-v1” as disclosed in WO2021176424A1 in hIgG4-S228P-FALA format.

Assay [5] shares this target. Briefly: ELISA, coated human CD36.ECD (FIG. 2F). How it is done: as §1, §3
For assay [6], the target named is T3, full-length human CD36-Flag overexpressed on stable F293 cells (human, UniProt P16671 2-472). Briefly: cell-based or functional assay.
T3 sequence (P16671 2-472): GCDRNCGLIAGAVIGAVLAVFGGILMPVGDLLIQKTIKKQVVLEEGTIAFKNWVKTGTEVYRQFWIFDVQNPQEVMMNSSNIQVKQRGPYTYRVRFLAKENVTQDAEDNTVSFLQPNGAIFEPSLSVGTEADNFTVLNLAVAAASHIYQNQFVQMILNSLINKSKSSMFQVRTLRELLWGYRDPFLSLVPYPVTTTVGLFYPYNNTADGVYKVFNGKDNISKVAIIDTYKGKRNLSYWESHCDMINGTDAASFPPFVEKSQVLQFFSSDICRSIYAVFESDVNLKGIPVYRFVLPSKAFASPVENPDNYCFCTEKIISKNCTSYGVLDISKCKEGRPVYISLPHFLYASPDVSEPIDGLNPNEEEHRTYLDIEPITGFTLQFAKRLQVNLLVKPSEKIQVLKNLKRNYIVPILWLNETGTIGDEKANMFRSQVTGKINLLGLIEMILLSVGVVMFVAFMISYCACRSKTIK
The target of assay [7] is T3, full-length human CD36-Flag …. As to the kind of experiment: flow cytometry, F293 cells overexpressing human CD36. From the text: (§4) After washing with FACS buffer (2% FBS in PBS), the cells were stained with anti-human IgG-Alexa Fluor 647 and analyzed by Attune NxT Flow Cytometer (Thermo Scientific).
For assay [8], the target named is T4, mouse CD36-His overexpressed on stable F293 cells (mouse, UniProt Q08857 1-472).
T4 construct: Gene segment from Sino Biological; also called F293/mCD36; mCD36; not shown: His tag
T4 sequence (Q08857 whole entry): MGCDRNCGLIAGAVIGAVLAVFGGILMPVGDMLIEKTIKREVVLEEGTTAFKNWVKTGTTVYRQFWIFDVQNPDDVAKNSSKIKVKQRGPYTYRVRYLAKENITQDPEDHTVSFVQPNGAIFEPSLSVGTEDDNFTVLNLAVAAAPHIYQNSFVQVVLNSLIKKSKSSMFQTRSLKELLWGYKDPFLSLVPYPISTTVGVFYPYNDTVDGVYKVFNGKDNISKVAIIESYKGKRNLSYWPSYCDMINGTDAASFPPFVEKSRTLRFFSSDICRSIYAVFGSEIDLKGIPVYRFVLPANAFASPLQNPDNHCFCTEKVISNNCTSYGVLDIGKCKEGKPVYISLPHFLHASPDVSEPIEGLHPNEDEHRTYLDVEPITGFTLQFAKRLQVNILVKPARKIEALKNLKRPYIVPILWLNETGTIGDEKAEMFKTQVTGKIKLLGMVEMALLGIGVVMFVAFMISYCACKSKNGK
As to the kind of experiment: flow cytometry, F293 cells overexpressing mouse CD36.
From the text: as §4

Assay [9] has as its target T1, Recombinant His-tagged human CD36.ECD …. Briefly: ELISA, coated human CD36.ECD (FIG. 2D). How it is done: as §1, §3
Assay [10] addresses T5, rhesus CD36-His overexpressed on stable F293 cells (rhesus, UniProt P16671 2-472 (human entry)).
T5 construct: Gene segment from Sino Biological; also called F293/rhesusCD36; not shown: His tag
Briefly: flow cytometry, F293 cells overexpressing rhesus CD36.
From the text: as §4

Assay [11] addresses T1, Recombinant His-tagged human CD36.ECD …. As to the kind of experiment: ELISA, coated human CD36.ECD (FIG. 2E). How it is done: as §1, §3
The target in assay [12] is T4, mouse CD36-His overexpressed on stable …. Briefly: cell-based or functional assay.
Assay [13] has as its target T1, Recombinant His-tagged human CD36.ECD …. As to the kind of experiment: ELISA, coated human CD36.ECD (FIG. 2C). How it is done:
as §1, §3

Assay [14] shares this target. Briefly: ELISA, coated human CD36.ECD (FIG. 2A). How it is done:
as §1, §3

Values joined by “and” are separate entries in the source; they are usually repeats but may differ in a detail not shown here. Identical values can stand only once.

T1 sequence (P16671 30-439 limits assumed): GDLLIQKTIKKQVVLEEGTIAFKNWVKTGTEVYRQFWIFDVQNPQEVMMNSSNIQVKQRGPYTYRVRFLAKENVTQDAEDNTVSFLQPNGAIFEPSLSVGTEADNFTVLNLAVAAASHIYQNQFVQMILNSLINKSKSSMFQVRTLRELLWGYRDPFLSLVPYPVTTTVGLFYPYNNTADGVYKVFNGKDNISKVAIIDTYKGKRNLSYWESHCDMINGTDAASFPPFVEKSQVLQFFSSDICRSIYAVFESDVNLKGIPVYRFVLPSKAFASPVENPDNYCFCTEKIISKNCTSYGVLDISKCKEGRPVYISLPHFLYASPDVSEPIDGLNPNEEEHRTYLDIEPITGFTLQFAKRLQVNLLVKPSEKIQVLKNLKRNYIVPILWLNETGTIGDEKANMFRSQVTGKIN
T5 sequence (P16671 other isoform, or with tags, fused parts or gaps): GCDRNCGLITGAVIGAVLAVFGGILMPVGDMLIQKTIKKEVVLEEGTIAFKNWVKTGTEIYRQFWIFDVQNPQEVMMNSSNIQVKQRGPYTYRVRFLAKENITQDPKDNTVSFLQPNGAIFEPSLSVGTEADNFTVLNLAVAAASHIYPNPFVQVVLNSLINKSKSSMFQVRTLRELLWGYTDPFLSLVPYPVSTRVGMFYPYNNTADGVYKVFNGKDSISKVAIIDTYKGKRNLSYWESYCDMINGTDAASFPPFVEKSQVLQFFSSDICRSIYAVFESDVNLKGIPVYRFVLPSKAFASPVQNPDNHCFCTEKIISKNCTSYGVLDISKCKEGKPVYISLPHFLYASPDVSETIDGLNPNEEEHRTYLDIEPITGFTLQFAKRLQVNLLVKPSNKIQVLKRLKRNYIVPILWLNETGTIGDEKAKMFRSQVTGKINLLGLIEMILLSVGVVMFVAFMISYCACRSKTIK

B1: A8A (antibody, human IgG1, kappa, N297A, V domains shown)
VH: EVQLVESGGGLVQPGGSLRLSCAASGFTISSFGIHWVRQAPGKGLEWVAWIAPYGGYTYYADSVKGRFTISADTSKNTAYLQMNSLRAEDTAVYYCARSFFGYFDYWGQGTLVTVSS
VL: DIQMTQSPSSLSASVGDRVTITCRASQDVSNWVAWYQQKPGKAPKLLISYANSLYSGVPSRFSGSGSGTDFTLTISSLQPEDFATYYCQQHSNLPLTFGQGTKVEIKR
notes: Full-length human IgG1-N297A, kappa; also called A8A (IgG1)
With B1, in [1], the EC50 came out at 5.17 nM. The EC50 in [2] came out at 0.94 nM. Also, in [3], the Kd is 3.42 nM, the koff turned out to be 0.00462 s⁻¹ and the kon worked out at 1.35e+06 M⁻¹ s⁻¹.

B2: 57T (antibody, V domains shown)
VH: EVQLVESGGGLVQPGGSLRLSCAASGFTISSFGIHWVRQAPGKGLEWVAWIAPYGGTTYYADSVKGRFTISADTSKNTAYLQMNSLRAEDTAVYYCARSFFGYFDYWGQGTLVTVSS
VL: DIQMTQSPSSLSASVGDRVTITCRASQDVSNWVAWYQQKPGKAPKLLISYATSLYSGVPSRFSGSGSGTDFTLTISSLQPEDFATYYCQQHSNAPLTFGQGTKVEIKR
notes: the sheet prints only 57T
Regarding B2, the binding result in assay [4] is on record as “no binding (tested: about 20 nM)”.

B3: 117_AA57E (antibody, V domains shown)
VH: EVQLVESGGGLVQPGGSLRLSCAASGFTIAAFGIHWVRQAPGKGLEWVAWIAPYGGETYYADSVKGRFTISADTSKNTAYLQMNSLRAEDTAVYYCARSFFGYFDYWGQGTLVTVSS
VL: DIQMTQSPSSLSASVGDRVTITCRASQDVSNWVAWYQQKPGKAPKLLISYATSLYSGVPSRFSGSGSGTDFTLTISSLQPEDFATYYCQQHSNAPLTFGQGTKVEIKR
notes: full-length IgG, human kappa
As to B3, the concentration giving a half-maximal response (EC50) in assay [5] was 0.251 nM.

B4: 117_DA57E (antibody, V domains shown)
VH: EVQLVESGGGLVQPGGSLRLSCAASGFTIDAFGIHWVRQAPGKGLEWVAWIAPYGGETYYADSVKGRFTISADTSKNTAYLQMNSLRAEDTAVYYCARSFFGYFDYWGQGTLVTVSS
VL: DIQMTQSPSSLSASVGDRVTITCRASQDVSNWVAWYQQKPGKAPKLLISYATSLYSGVPSRFSGSGSGTDFTLTISSLQPEDFATYYCQQHSNAPLTFGQGTKVEIKR
notes: full-length IgG, human kappa
Consider B4, for which the “oxLDL uptake IC50 (nM), F293/hCD36” value in assay [6] turned out to be 0.306 nM. Besides, the concentration for a half-maximal effect (EC50) in assay [7] was 0.109 µg/mL and 0.0968 µg/mL; in assay [5] it was 0.19 nM; in [8], 0.425 µg/mL and 0.375 µg/mL; in assay [9], 0.0539 nM; in assay [10] it was 0.563 µg/mL and 0.671 µg/mL.

B5: 117_101Y (antibody, V domains shown)
VH: EVQLVESGGGLVQPGGSLRLSCAASGFTISSFGIHWVRQAPGKGLEWVAWIAPYGGYTYYADSVKGRFTISADTSKNTAYLQMNSLRAEDTAVYYCARSFYGYFDYWGQGTLVTVSS
VL: DIQMTQSPSSLSASVGDRVTITCRASQDVSNWVAWYQQKPGKAPKLLISYATSLYSGVPSRFSGSGSGTDFTLTISSLQPEDFATYYCQQHSNAPLTFGQGTKVEIKR
notes: full-length IgG, human kappa
Take B5: the EC50 in [11] amounted to 0.355 nM.

B6: 117_101S (antibody, V domains shown)
VH: EVQLVESGGGLVQPGGSLRLSCAASGFTISSFGIHWVRQAPGKGLEWVAWIAPYGGYTYYADSVKGRFTISADTSKNTAYLQMNSLRAEDTAVYYCARSFSGYFDYWGQGTLVTVSS
VL: DIQMTQSPSSLSASVGDRVTITCRASQDVSNWVAWYQQKPGKAPKLLISYATSLYSGVPSRFSGSGSGTDFTLTISSLQPEDFATYYCQQHSNAPLTFGQGTKVEIKR
notes: full-length IgG, human kappa
B6: the EC50 in assay [11] is 0.929 nM.

B7: 117_101H (antibody, V domains shown)
VH: EVQLVESGGGLVQPGGSLRLSCAASGFTISSFGIHWVRQAPGKGLEWVAWIAPYGGYTYYADSVKGRFTISADTSKNTAYLQMNSLRAEDTAVYYCARSFHGYFDYWGQGTLVTVSS
VL: DIQMTQSPSSLSASVGDRVTITCRASQDVSNWVAWYQQKPGKAPKLLISYATSLYSGVPSRFSGSGSGTDFTLTISSLQPEDFATYYCQQHSNAPLTFGQGTKVEIKR
notes: full-length IgG, human kappa
In the case of B7, in [11], the EC50 came out at 1.6 nM.

B8: 117_30DA (antibody, V domains shown)
VH: EVQLVESGGGLVQPGGSLRLSCAASGFTIDAFGIHWVRQAPGKGLEWVAWIAPYGGYTYYADSVKGRFTISADTSKNTAYLQMNSLRAEDTAVYYCARSFFGYFDYWGQGTLVTVSS
VL: DIQMTQSPSSLSASVGDRVTITCRASQDVSNWVAWYQQKPGKAPKLLISYATSLYSGVPSRFSGSGSGTDFTLTISSLQPEDFATYYCQQHSNAPLTFGQGTKVEIKR
notes: full-length IgG, human kappa
For the molecule B8, the “oxLDL uptake IC50 (nM), F293/mCD36” value in assay [12] came to 1.07 nM. Besides, the “oxLDL uptake IC50 (nM), F293/hCD36” value in assay [6] amounted to 0.691 nM. Moreover, the EC50 in assay [7] stood at 0.157 µg/mL; in [8], 0.488 µg/mL; in assay [9], 0.0803 nM; in assay [13] it was 0.137 nM; in assay [10], 1.04 µg/mL.

B9: 117_57E (antibody, V domains shown)
VH: EVQLVESGGGLVQPGGSLRLSCAASGFTISSFGIHWVRQAPGKGLEWVAWIAPYGGETYYADSVKGRFTISADTSKNTAYLQMNSLRAEDTAVYYCARSFFGYFDYWGQGTLVTVSS
VL: DIQMTQSPSSLSASVGDRVTITCRASQDVSNWVAWYQQKPGKAPKLLISYATSLYSGVPSRFSGSGSGTDFTLTISSLQPEDFATYYCQQHSNAPLTFGQGTKVEIKR
notes: full-length IgG, human kappa
On to B9, for which the “oxLDL uptake IC50 (nM), F293/mCD36” value in assay [12] was found to be 0.796 nM. Also, in assay [6], the “oxLDL uptake IC50 (nM), F293/hCD36” value is 0.419 nM. Also, the EC50 in assay [7] is 0.11 µg/mL and 0.091 µg/mL; in [5] it was 0.206 nM; in assay [14], 0.0492 nM; in assay [8] it was 0.331 µg/mL and 0.279 µg/mL; in assay [10], 0.419 µg/mL and 0.362 µg/mL.

B10: 117_AA57D (antibody, V domains shown)
VH: EVQLVESGGGLVQPGGSLRLSCAASGFTIAAFGIHWVRQAPGKGLEWVAWIAPYGGDTYYADSVKGRFTISADTSKNTAYLQMNSLRAEDTAVYYCARSFFGYFDYWGQGTLVTVSS
VL: DIQMTQSPSSLSASVGDRVTITCRASQDVSNWVAWYQQKPGKAPKLLISYATSLYSGVPSRFSGSGSGTDFTLTISSLQPEDFATYYCQQHSNAPLTFGQGTKVEIKR
notes: full-length IgG, human kappa
For B10, in assay [5], the EC50 is 0.192 nM.
